Where no end group is shown, it is not given here. [ ]: non-standard residue; d: D form. pY = N[C@@H](Cc1ccc(OP(=O)(O)O)cc1)C(=O)O
T1: Full-length STAT1 protein (unphosphorylated, U-STAT1) (UniProt P42224 1-750)
T1 construct: also called STAT1 FL
T1 sequence (looked up): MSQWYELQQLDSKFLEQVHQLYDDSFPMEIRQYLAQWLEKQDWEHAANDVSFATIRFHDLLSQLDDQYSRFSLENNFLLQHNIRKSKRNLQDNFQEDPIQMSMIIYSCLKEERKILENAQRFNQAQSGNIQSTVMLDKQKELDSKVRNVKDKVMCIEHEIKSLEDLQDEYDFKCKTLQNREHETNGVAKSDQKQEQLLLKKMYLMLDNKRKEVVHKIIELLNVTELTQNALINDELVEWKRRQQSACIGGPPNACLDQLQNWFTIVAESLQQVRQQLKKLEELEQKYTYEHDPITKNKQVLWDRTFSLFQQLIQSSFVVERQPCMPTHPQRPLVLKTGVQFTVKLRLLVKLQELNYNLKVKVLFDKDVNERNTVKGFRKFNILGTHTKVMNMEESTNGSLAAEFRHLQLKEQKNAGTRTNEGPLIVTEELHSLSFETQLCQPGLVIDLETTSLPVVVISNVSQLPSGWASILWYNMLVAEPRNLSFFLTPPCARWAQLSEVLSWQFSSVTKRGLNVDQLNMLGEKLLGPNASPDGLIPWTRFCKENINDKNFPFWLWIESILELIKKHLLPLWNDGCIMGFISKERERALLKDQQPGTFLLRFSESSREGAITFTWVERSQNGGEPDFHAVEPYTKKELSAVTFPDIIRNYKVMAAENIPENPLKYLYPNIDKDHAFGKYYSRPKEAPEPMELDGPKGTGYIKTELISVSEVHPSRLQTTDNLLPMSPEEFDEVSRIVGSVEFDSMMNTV

T2: Full-length STAT1 protein (unphosphorylated) (human, UniProt P42224 1-750)
T2 construct: also called U-STAT1; pEXP-nHis-STAT1
T2 sequence (looked up): T1 sequence (looked up)

B1: pIFNGR1 5-mer peptide (Ac-pYDKPH-NH2) (peptide)
peptide: Ac-[pY]DKPH-NH2
SMILES: CC(=O)N[C@@H](Cc1ccc(OP(=O)(O)O)cc1)C(=O)N[C@@H](CC(=O)O)C(=O)N[C@@H](CCCCN)C(=O)N1CCC[C@H]1C(=O)N[C@@H](Cc1c[nH]cn1)C(N)=O
notes: also called pIFNGR 5-mer
B2: GB1-018 (natural protein)
chain: MSSKGGSSGGMWSVFIHGHDGSNKGSKTYTSGGGGMWGGGSSSGVKSGVNGGVKSGTGKI

target: T1, Full-length STAT1 protein …; assay: ITC; conditions: both partners purified

Binder | stoichiometry N
Ac-MWSVFIHGHDGSNKGSKTYTS-NH2 [018 21-mer peptide (Ac-MWSVFIHGHDGSNKGSKTYTS-NH2)] | 1.09
MWSVFIHGHDGSNKGSKTYTS (domain or fragment) [GB1-018^T2 (minimal fragment of 018, aa 11-31, fused to GB1)] | 1.01
MWSVFIHGHDGSNKGSK (domain or fragment) [GB1-018^T3 (018^T2 without the C-terminal 28-TYTS-31, fused to GB1)] | 1
Ac-MWSVFIHGHDGSNKGSKT[pY]TS-NH2 [018 phospho 21-mer peptide (Ac-MWSVFIHGHDGSNKGSKT(pY)TS-NH2)] | 1.12
B1 | 0.708

target: T2, Full-length STAT1 protein …; assay: ITC; conditions: both partners purified

Binder | Kd [nM] | stoichiometry N
MWSVFIHGHDGSNKGSK (domain or fragment) [GB1-018^T3] | > 10000 | –
MWSVFIHGHDGSNKGSKTYTS (also: phospho, position not given here) [018 phospho 21-mer peptide] | 174 | –
MWSVFIHGHDGSNKGSKTYTS (domain or fragment) [GB1-018^T2] | 235 | –
B2 | 291 | 1.02
MWSVFIHGHDGSNKGSKTYTS [018 21-mer peptide] | 321 | –

target: T2, Full-length STAT1 protein …; assay: fluorescence polarisation; conditions: both partners purified

Binder | IC50 [nM]
MWSVFIHGHDGSNKGSK (domain or fragment) [GB1-018^T3] | 17800
MWSVFIHGHDGSNKGSKTYTS (domain or fragment) [GB1-018^T2] | 930
B2 | 1260

Source: article PMC8912257 (Cell Host & Microbe, 2022)
